{
  "source": "paper PMC11467389",
  "key": {"[1]": {"assay": "Western blot of endogenous PDK1 in ST2 cells", "conditions": "glycan lost; control: rhWnt3a alone"}, "[2]": {"assay": "CHX chase of Flag-PDK1, Western blot (half-life)", "conditions": "glycan lost; control: rhWnt3a alone"}, "[3]": {"assay": "CHX chase, anti-Flag Western blot (half-life)", "conditions": "glycan lost; control: Flag-PDK1 WT"}, "[4]": {"assay": "MG132 6 h, Flag IP, ubiquitin blot", "conditions": "glycan lost; control: Flag-PDK1 WT"}},
  "data": [
    {"substance": "PDK1 (pyruvate dehydrogenase kinase 1): DON", "values": [
      {"measurement": "expression_or_secretion", "setting": "[1]", "result": "decreases"}
    ]},
    {"substance": "PDK1 (pyruvate dehydrogenase kinase 1): OSMI", "values": [
      {"measurement": "degradation_or_half_life", "setting": "[2]", "result": "decreases"}
    ]},
    {"substance": "PDK1 (pyruvate dehydrogenase kinase 1): S174A", "values": [
      {"measurement": "degradation_or_half_life", "setting": "[3]", "result": "decreases"},
      {"measurement": "other: ubiquitination", "setting": "[4]", "result": "increases"}
    ]}
  ]
}
